Key:
[1] = molecular target: BCR-ABL Y177F (human) (UniProt P11274); assay: native gel or EMSA
[2] = molecular target: kinase-dead BCR-ABL (K271H) (human) (UniProt P11274); assay: native gel or EMSA
[3] = molecular target: BCR-ABL with deleted FABD domain (human) (UniProt P11274); assay: co-IP
[4] = molecular target: BCR-ABL with deleted DH-PH domains (human) (UniProt P11274); assay: co-IP
[5] = molecular target: BCR-ABL Y177F (human) (UniProt P11274); assay: co-IP
[6] = molecular target: BCR-ABL with deleted IDR (human) (UniProt P11274); assay: co-IP
[7] = molecular target: BCR-ABL with deleted PH domain (human) (UniProt P11274); assay: co-IP
[8] = molecular target: p190 BCR-ABL (human) (UniProt P11274); assay: proximity ligation

GRB2 of NIH3T3 cells (from UniProt Q60631 1-217) (natural protein)
percent of GRB2 associated [1]: 30% | percent of GRB2 associated [2]: 30%

p85a-PI3K, transfected (from UniProt P27986 1-724) (natural protein)
decrease of binding against BCR-ABL [3]: 40% | decrease of binding against BCR-ABL [4]: 80% | decrease of binding against BCR-ABL [5]: 50% | decrease of binding against BCR-ABL [6]: 70%

B1: SHC1, endogenous (natural protein)
chain: MDLLPPKPKYNPLRNESLSSLEEGASGSTPPEELPSPSASSLGPILPPLPGDDSPTTLCSFFPRMSNLRLANPAGGRPGSKGEPGRAADDGEGIVGAAMPDSGPLPLLQDMNKLSGGGGRRTRVEGGQLGGEEWTRHGSFVNKPTRGWLHPNDKVMGPGVSYLVRYMGCVEVLQSMRALDFNTRTQVTREAISLVCEAVPGAKGATRRRKPCSRPLSSILGRSNLKFAGMPITLTVSTSSLNLMAADCKQIIANHHMQSISFASGGDPDTAEYVAYVAKDPVNQRACHILECPEGLAQDVISTIGQAFELRFKQYLRNPPKLVTPHDRMAGFDGSAWDEEEEEPPDHQYYNDFPGKEPPLGGVVDMRLREGAAPGAARPTAPNAQTPSHLGATLPVGQPVGGDPEVRKQMPPPPPCPGRELFDDPSYVNVQNLDKARQAVGGAGPPNPAINGSAPRDLFDMKPFEDALRVPPPPQSVSMAEQLRGEPWFHGKLSRREAEALLQLNGDFLVRESTTTPGQYVLTGLQSGQPKHLLLVDPEGVVRTKDHRFESVSHLISYHMDNHLPIISAGSELCLQQPVERKL
decrease of the interaction against BCR-ABL [7]: 70%

B2: V5-tagged SHIP2 (enzyme)
chain: MASACGAPGPGGALGSQAPSWYHRDLSRAAAEELLARAGRDGSFLVRDSESVAGAFALCVLYQKHVHTYRILPDGEDFLAVQTSQGVPVRRFQTLGELIGLYAQPNQGLVCALLLPVEGEREPDPPDDRDASDGEDEKPPLPPRSGSTSISAPTGPSSPLPAPETPTAPAAESAPNGLSTVSHDYLKGSYGLDLEAVRGGASHLPHLTRTLATSCRRLHSEVDKVLSGLEILSKVFDQQSSPMVTRLLQQQNLPQTGEQELESLVLKLSVLKDFLSGIQKKALKALQDMSSTAPPAPQPSTRKAKTIPVQAFEVKLDVTLGDLTKIGKSQKFTLSVDVEGGRLVLLRRQRDSQEDWTTFTHDRIRQLIKSQRVQNKLGVVFEKEKDRTQRKDFIFVSARKREAFCQLLQLMKNKHSKQDEPDMISVFIGTWNMGSVPPPKNVTSWFTSKGLGKTLDEVTVTIPHDIYVFGTQENSVGDREWLDLLRGGLKELTDLDYRPIAMQSLWNIKVAVLVKPEHENRISHVSTSSVKTGIANTLGNKGAVGVSFMFNGTSFGFVNCHLTSGNEKTARRNQNYLDILRLLSLGDRQLNAFDISLRFTHLFWFGDLNYRLDMDIQEILNYISRKEFEPLLRVDQLNLEREKHKVFLRFSEEEISFPPTYRYERGSRDTYAWHKQKPTGVRTNVPSWCDRILWKSYPETHIICNSYGCTDDIVTSDHSPVFGTFEVGVTSQFISKKGLSKTSDQAYIEFESIEAIVKTASRTKFFIEFYSTCLEEYKKSFENDAQSSDNINFLKVQWSSRQLPTLKPILADIEYLQDQHLLLTVKSMDGYESYGECVVALKSMIGSTAQQFLTFLSHRGEETGNIRGSMKVRVPTERLGTRERLYEWISIDKDEAGAKSKAPSVSRGSQEPRSGSRKPAFTEASCPLSRLFEEPEKPPPTGRPPAPPRAAPREEPLTPRLKPEGAPEPEGVAAPPPKNSFNNPAYYVLEGVPHQLLPPEPPSPARAPVPSATKNKVAITVPAPQLGHHRHPRVGEGSSSDEESGGTLPPPDFPPPPLPDSAIFLPPSLDPLPGPVVRGRGGAEARGPPPPKAHPRPPLPPGPSPASTFLGEVASGDDRSCSVLQMAKTLSEVDYAPAGPARSALLPGPLELQPPRGLPSDYGRPLSFPPPRIRESIQEDLAEEAPCLQGGRASGLGEAGMSAWLRAIGLERYEEGLVHNGWDDLEFLSDITEEDLEEAGVQDPAHKRLLLDTLQLSK
interaction preserved with nilotinib, against active BCR-ABL [8]: > 50%

From article doi:10.1101/684480
